Results: US20220112288A1 (published 2022)

How the values were obtained:
[1] = target: T1, human CD4 on cells (SKW3 cells; human PBMCs) (human, UniProt P01730 26-458); test: FACS confirmation, supernatant on SKW3 cells; background gMFI 2500
T1 construct: whole, on cells; SKW3 CD4 knockout cells served as the negative cell line in the primary screen; also called hCD4; huCD4

huCD4-HIS = target: T2, huCD4-HIS (human, UniProt P01730 26-390, limits assumed); test: ELISA binning; competitor ibalizumab; 100 ng/mL huCD4-HIS, anti-HIS HRP; background 45, max binding 3000000
T2 construct: the ELISA is not described in the text of this stretch; also called human CD4-HIS

[2] = target: T1, human CD4 on cells (SKW3 cells; human …); test: FACS confirmation, supernatant on human PBMCs;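 further: flow cytometry with hybridoma supernatants incubated on human PBMCs for 30 min at 4 °C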
[3] = target: T1, human CD4 on cells (SKW3 cells; human …); test: FACS binning on SKW3 cells; competitor OKT4-A488; background 2163, max binding 8200
[4] = target: T1, human CD4 on cells (SKW3 cells; human …); test: FACS binning on SKW3 cells; competitor RPA-T4-PE-Dazzle 594; background 783, max binding 15000
[5] = target: T1, human CD4 on cells (SKW3 cells; human …); test: FACS binning on SKW3 cells; competitor OKT4a; background 5000, max binding 35000
[6] = target: T1, human CD4 on cells (SKW3 cells; human …); test: FACS confirmation, supernatant on SKW3 cells; background gMFI 3300
[7] = target: T1, human CD4 on cells (SKW3 cells; human …); test: FACS primary screen, hybridoma supernatant, SKW3 vs SKW3 CD4 KO cells;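 further: flow cytometry on mixed SKW3 and dye-labeled SKW3 CD4 knockout cells after 30 min at 4 °C with supernatant, ratio of binding signal on parental versus knockout cells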

B1: 75110_10O16A (antibody, V domains shown)
VH: EVQLVESGGGLVQPGGSLRLSCAASGFTFSNSDMHWVRQATGKGLEWVSTIGTAGDTYYPGSVKGRFTISRENAKNSLYLQMNSLRAGDTAVYYCARGGLYYYGMDVWGQGTTVTVSS
VL: ENVLTQSPGTLSLSPGERATLSCRASQSVSSSYLAWYQQKPGQAPRLLIYGASSRATGIPDRFSGSGSGTDFTLTISRLEPEDFAVYYCHQFGSSPFTFGPGTKVDIK
notes: Tested as non-clonal AlivaMab Mouse Kappa hybridoma supernatant (detected with anti-mouse Fc gamma and anti-human kappa); also called 75110_10016A
gMFI on SKW3 WT, anti-hu Kappa FITC [1]: 3160 gMFI | Ibalizumab ELISA binning signal (huCD4-HIS): 2.37e+06 | PBMCs CD4+ gate RL1 binding, anti-mFc 647 [2]: 72100 | PBMCs CD4+ percent bound of viable [2]: 23% | OKT4-A488 signal with supernatant [3]: 8260 | RPA-T4-PE-Dazzle 594 signal with supernatant [4]: 15300 | OKT4a signal (anti-hu A647) with supernatant [5]: 34800 | gMFI on SKW3 WT, anti-mFc 647 [6]: 5460 gMFI | SKW3 WT vs KO ratio, anti-hKappa-FITC [7]: 1.3 | SKW3 WT vs KO ratio, anti-mFc-647 [7]: 2.4

B2: 75110_01E08A (antibody, V domains shown)
VH: EVQLVESGGGLVQPGGSLRLSCAASGFTFNNYDMHWVRQATGKGLEWVSTIGTAGDTYYPASVKGRFTIYRENAKNSLYLQMNSLRAGDTAVYYCARGGDYYYGMDVWGQGTTVTVSS
VL: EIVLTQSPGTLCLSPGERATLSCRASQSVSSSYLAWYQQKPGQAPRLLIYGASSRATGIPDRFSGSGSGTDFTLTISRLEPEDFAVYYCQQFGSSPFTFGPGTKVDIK
notes: Tested as non-clonal AlivaMab Mouse Kappa hybridoma supernatant (detected with anti-mouse Fc gamma and anti-human kappa)
gMFI on SKW3 WT, anti-hu Kappa FITC [1]: 6340 gMFI | Ibalizumab ELISA binning signal (huCD4-HIS): 1.84e+06 | PBMCs CD4+ gate RL1 binding, anti-mFc 647 [2]: 302000 | PBMCs CD4+ percent bound of viable [2]: 29% | OKT4-A488 signal with supernatant [3]: 3330 | RPA-T4-PE-Dazzle 594 signal with supernatant [4]: 14400 | OKT4a signal (anti-hu A647) with supernatant [5]: 43300 | gMFI on SKW3 WT, anti-mFc 647 [6]: 22900 gMFI | SKW3 WT vs KO ratio, anti-hKappa-FITC [7]: 2.2 | SKW3 WT vs KO ratio, anti-mFc-647 [7]: 5.9

B3: 75110_07J02A (antibody, V domains shown)
VH: EVQLVESGGGLVQPGGSLRLSCAASGFTFSSYWMSWVRQAPGKGLEWVANIKEDGSEKYYVDSVKGRFTISRDNAKNSLYLQMNSLRAEDTAVYYCARDGSYSGYGMDVWGQGTTVTVSS
VL: AIQMTQSPSSLSASVGDRVTITCRASQGIRNDLGWYQQKPGKAPKLLIYAASSLQSGVPSRFSGRGSGTDFALTISSLQPEDFATYYCLLDYNYPYTFGQGTRLEIK
notes: as for B2
gMFI on SKW3 WT, anti-hu Kappa FITC [1]: 3980 gMFI | Ibalizumab ELISA binning signal (huCD4-HIS): 1.98e+06 | PBMCs CD4+ gate RL1 binding, anti-mFc 647 [2]: 89200 | PBMCs CD4+ percent bound of viable [2]: 27% | OKT4-A488 signal with supernatant [3]: 8050 | RPA-T4-PE-Dazzle 594 signal with supernatant [4]: 15900 | OKT4a signal (anti-hu A647) with supernatant [5]: 38000 | gMFI on SKW3 WT, anti-mFc 647 [6]: 13400 gMFI | SKW3 WT vs KO ratio, anti-hKappa-FITC [7]: 1.3 | SKW3 WT vs KO ratio, anti-mFc-647 [7]: 2.3

B4: 75110_07N04A (antibody, V domains shown)
VH: QVQLQESGPGLVKPSETLSLTCSVSGVSSTSFYWSWIRQPAGKGLDWIGRIYTSGSTNYNPSLKSRVTMSVDTSKNQFSLKLSSVTAADTAVYYCARDPGYSDAFAIWGQGTMVTVSS
VL: not shown
notes: as for B2
gMFI on SKW3 WT, anti-hu Kappa FITC [1]: 6230 gMFI | Ibalizumab ELISA binning signal (huCD4-HIS): 1.66e+06 | PBMCs CD4+ gate RL1 binding, anti-mFc 647 [2]: 344000 | PBMCs CD4+ percent bound of viable [2]: 30% | OKT4-A488 signal with supernatant [3]: 9010 | RPA-T4-PE-Dazzle 594 signal with supernatant [4]: 15500 | OKT4a signal (anti-hu A647) with supernatant [5]: 36100 | gMFI on SKW3 WT, anti-mFc 647 [6]: 30400 gMFI | SKW3 WT vs KO ratio, anti-hKappa-FITC [7]: 2.8 | SKW3 WT vs KO ratio, anti-mFc-647 [7]: 7.8

B5: 75110_08D24A (antibody, V domains shown)
VH: QVQLQESGPGLVKPSETLSLTCTVSGGSISGFYWSWIRQPAGKGLEWIGRIYTSENTNYNPSLKSRVTMSVDTSKNQFSLKLSSVTAADTAVYYCARDREGYYYYGMDVWGQGTTVTVSS
VL: DIQMTQSPSSLSASVGDRVTITCQASQDISNYLNWYQQKPGKAPKLLIYAASNLETGVPSRFSGSGSGTDFTFTISSLQPEDIATYYCQQYDSLPITFGQGTRLEIK
notes: as for B2
gMFI on SKW3 WT, anti-hu Kappa FITC [1]: 3570 gMFI | Ibalizumab ELISA binning signal (huCD4-HIS): 887000 | PBMCs CD4+ gate RL1 binding, anti-mFc 647 [2]: 278000 | PBMCs CD4+ percent bound of viable [2]: 30% | OKT4-A488 signal with supernatant [3]: 7930 | RPA-T4-PE-Dazzle 594 signal with supernatant [4]: 14600 | OKT4a signal (anti-hu A647) with supernatant [5]: 42500 | gMFI on SKW3 WT, anti-mFc 647 [6]: 20100 gMFI | SKW3 WT vs KO ratio, anti-hKappa-FITC [7]: 1.1 | SKW3 WT vs KO ratio, anti-mFc-647 [7]: 4.1

B6: 75110_06G04A (antibody, V domains shown)
VH: QVQLLESGPGLVKPSETLSLTCTVSGGSISSYYWSWIRQPAGKGLEWIGRIYISGSTNYNPSLKSRVTMSIDTSENQFSLNLSSVTAADTAVYYCARELERPYYYGMDVWGQGTTVTVSS
VL: DIQMTQSPSSLSASVGDRVTITCQASQDISNYLNWYQQKPGKAPKLLIYNASTLETGVPSRFSGSGSGTDFTFTISSLQPEDIATYYCQQYDNLPLTFGGGTKVEFK
notes: as for B2
gMFI on SKW3 WT, anti-hu Kappa FITC [1]: 8480 gMFI | Ibalizumab ELISA binning signal (huCD4-HIS): 1.96e+06 | PBMCs CD4+ gate RL1 binding, anti-mFc 647 [2]: 240000 | PBMCs CD4+ percent bound of viable [2]: 30% | OKT4-A488 signal with supernatant [3]: 9310 | RPA-T4-PE-Dazzle 594 signal with supernatant [4]: 16600 | OKT4a signal (anti-hu A647) with supernatant [5]: 30800 | gMFI on SKW3 WT, anti-mFc 647 [6]: 33700 gMFI | SKW3 WT vs KO ratio, anti-hKappa-FITC [7]: 3.3 | SKW3 WT vs KO ratio, anti-mFc-647 [7]: 9.3

B7: 75110_06K03A (antibody, V domains shown)
VH: QVQLQESGPGLVKPSETLSLTCTVSGGSISTYYWSWIRQPAGKGLEWIGRINTSGSTTYNPSLKSRVTMSVDTSKNQFSLKLSSVTAADTAVYYCARELERYYYYGMDVWGQGTTVTVSS
VL: DIQMTQSPSSLSASVGDRVTITCQASQDISNYLNWYQQKPGKAPKLLIYYASILETGVPSRFSGSGSGTDFTFTISSLQPEDIATYYCQQYDSLPLTFGGGTKVEIK
notes: as for B2
gMFI on SKW3 WT, anti-hu Kappa FITC [1]: 8640 gMFI | Ibalizumab ELISA binning signal (huCD4-HIS): 1.65e+06 | PBMCs CD4+ gate RL1 binding, anti-mFc 647 [2]: 296000 | PBMCs CD4+ percent bound of viable [2]: 32% | OKT4-A488 signal with supernatant [3]: 9140 | RPA-T4-PE-Dazzle 594 signal with supernatant [4]: 15800 | OKT4a signal (anti-hu A647) with supernatant [5]: 33200 | gMFI on SKW3 WT, anti-mFc 647 [6]: 33600 gMFI | SKW3 WT vs KO ratio, anti-hKappa-FITC [7]: 2.7 | SKW3 WT vs KO ratio, anti-mFc-647 [7]: 7.5

B8: 75110_08F20A (antibody, V domains shown)
VH: QVQLQESGPGLVKPSETLSLTCSVSGGSISTYYWSWIRQPAGKGLEWIGRICTTENTNYNPSLKSRVTMSIDSSKNQFSLKLSSVTAADTAVYYCARDLERLNYYGMDVWGQGATVTVSS
VL: DIQMTQSPSSLSASVGDRVTITCQASQDISKYLNWYQQKPGIAPKLLIYDASNLETGVPSRFSGSGSGTDFTFTISSLQPEDFATYYCQQYDSLPITFGQGTRLEIK
notes: as for B2
gMFI on SKW3 WT, anti-hu Kappa FITC [1]: 6170 gMFI | Ibalizumab ELISA binning signal (huCD4-HIS): 1.41e+06 | PBMCs CD4+ gate RL1 binding, anti-mFc 647 [2]: 253000 | PBMCs CD4+ percent bound of viable [2]: 32% | OKT4-A488 signal with supernatant [3]: 7410 | RPA-T4-PE-Dazzle 594 signal with supernatant [4]: 15500 | OKT4a signal (anti-hu A647) with supernatant [5]: 44800 | gMFI on SKW3 WT, anti-mFc 647 [6]: 31500 gMFI | SKW3 WT vs KO ratio, anti-hKappa-FITC [7]: 1.7 | SKW3 WT vs KO ratio, anti-mFc-647 [7]: 3.1

B9: 75110_08G08A (antibody, V domains shown)
VH: QVQLQESGPGLVKPSETLSLTCSVSGGSISTYYWSWIRQPAGKGLEWIGRICTTENTNYNPSLKSRVTMSIDSSKNQFSLKLSSVTAADTAVYYCARDLERLNYYGMDVWGQGATVTVSS
VL: DIQMTQSPSSLSASVGDRVTITCQASQDISNYLNWYQQKPGIAPKLLIYDASNLETGVPSRFSGSGSGTDFTFTISSLQPEDIATYYCQQYDSLPITFGQGTRLEIK
notes: as for B2
gMFI on SKW3 WT, anti-hu Kappa FITC [1]: 5840 gMFI | Ibalizumab ELISA binning signal (huCD4-HIS): 1.69e+06 | PBMCs CD4+ gate RL1 binding, anti-mFc 647 [2]: 314000 | PBMCs CD4+ percent bound of viable [2]: 30% | OKT4-A488 signal with supernatant [3]: 8890 | RPA-T4-PE-Dazzle 594 signal with supernatant [4]: 16200 | OKT4a signal (anti-hu A647) with supernatant [5]: 38400 | gMFI on SKW3 WT, anti-mFc 647 [6]: 19400 gMFI | SKW3 WT vs KO ratio, anti-hKappa-FITC [7]: 2.4 | SKW3 WT vs KO ratio, anti-mFc-647 [7]: 5.7
